The text below walks through data of patent US10555963B2, “Klotho protein and related compounds for the treatment and diagnosis of cancer” (TEL HASHOMER MEDICAL RESEARCH INFRASTRUCTURE AND SERVICES …, priority 2007, dated 2020).

The test system of one assay is MCF-7. Kind of assay: Colony formation assay after transfection with klotho protein expression vector. In kind it is cell-based, human. Conditions: transfected pcDNA3-HA-KL vs empty vector; G418 two weeks; p<0.0005. As for the experimental part:
(§1) Two days following transfection with the indicated plasmids, G418 (750 μg/ml) was added to the culture media; and at day 14, the cells were stained using gentian violet. Untransfected cells were treated similarly, and all died within the 2 weeks of culture in the selection media. Quantification of the results was performed using AlphaImager 2000 (Alpha Innotech, CA).
(§2) The effect of klotho protein on growth of breast cancer cells was first assessed using colony formation assays. MCF-7, MDA-MB-231 and the non-cancerous human embryonic kidney (HEK) 293 cells were transfected with either a HA-tagged klotho protein expression vector (pcDNA3-HI-A-KL) or an empty vector (pcDNA3). Transfected cells were cultured in media containing G418 for two weeks and stained to determine the number of surviving colonies.

In the next assay the test system is MDA-MB-231. Described as above. Format: cell-based, human. Conditions: transfected pcDNA3-HA-KL vs empty vector; G418 two weeks; p<0.0005. As to the method: as §1, §2
Assay [1] concerns MCF-7 and MDA-MB-231 clones. Kind of assay: MTT proliferation assay of clones stably expressing klotho protein. In kind it is cell-based, human. Conditions: stable klotho protein-expressing clones vs pcDNA3 controls; 24-72 h. As to the method:
The medium was aspirated, and the cells were dissolved by dimethyl sulfoxide (DMSO).
In order to assess the long-term effects of klotho protein expression, MCF-7 and MDA-MB-231 clones, which stably expressed either pcDNA3 or pcDNA3-HA-KL, were generated. Proliferation was evaluated by 3-(4,5-dimethylthiazol-2-yl)-2,5-diphenyltetrazolium bromide (MTT) assay after seeding for 24-72 h.
A general note: Tetrazolium dyes change colour on reduction, which living cells bring about.

In the next assay the test system is p53 levels in HEK 293. Kind of assay: Immunoblot of p53 and PARP after klotho protein over-expression. In kind it is cell-based, human. As to the method:
(§3) For breast cells, cells were harvested and lysed for total protein extraction in RIPA buffer (50 mM Tris-Cl pH 7.4, 150 mM NaCl, 1% NP-40, 0.25% Na-deoxycholate, 1 mM EDTA, 1 mM NaF) together with a protease inhibitor cocktail (Sigma). 50 μg protein extracts were loaded on 10% polyacrylamide gels, separated electrophoretically and blotted from the gel onto nitrocellulose membrane (Schleicher & Schuell Bioscience GmbH, Dassel, D E). The membranes were then immunoblotted with the indicated antibodies.
(§4) In fibroblasts, klotho protein reduces senescence through down-regulation of p53 (de Oliveira, 2006). The effects of klotho protein on p53 levels in MCF-7 breast cancer cells and HEK 293 were therefore analyzed.

Assay [2] relates to p53 levels in MCF-7 cells. The assay is described as above. Format: cell-based, human. As for the experimental part:
as §3, §4

Assay [3] has as its system IGF-1 pathway in MCF-7 cells. The assay is described as follows: IGF-1 pathway activation (Western blotting) after klotho protein over-expression. Particulars: IGF-1 12.5 nM, 15 min. Format: cell-based, human. As for the experimental part: as §3
MDA-MB-231 cells, which express lower levels of these receptors, were also examined. HEK 293 cells, whose growth is not dependent on the IGF-1 pathway (El-Shewy et al., 2007) and is not inhibited by klotho protein, served as control.
In order to elucidate klotho protein activity as an inhibitor of […] activation, MCF-7 cells were transfected with either pcDNA3-HA-KL or an empty vector, starved for 48 hours, treated with IGF-1 for the indicated times and doses, and analyzed using Western blotting for the level of expression and phosphorylation of IGF-1R.
In further experiments, MCF-7, MDA-MB-231 or HEK-293 cells were transfected with either pcDNA3-HA-KL or empty vector and treated with IGF-1 (12.5 nM, 15 min).
For orientation: In western blotting, separated proteins are transferred to a membrane and probed.

Assay [4] deals with insulin pathway in MCF-7 cells. The assay is described as follows: Insulin pathway activation after klotho protein over-expression. Format: cell-based, human. Particulars: insulin stimulation.
For assay [5], the system named is EGF pathway in MCF-7, MDA-MB-231 and HEK293 cells. Kind of assay: EGF pathway (ERK1/2) after klotho protein over-expression. In kind it is cell-based, human. Conditions: starved 48 hours. As for the experimental part:
The effects of over-expression of klotho protein on the insulin-stimulated pathway were also examined. The EGF pathway, which plays an important role in the pathogenesis of breast cancer, is not modulated by klotho protein in either L6 or H411E cells (Kurosu et al., 2005). In order to evaluate the effects of klotho protein on this pathway in MCF-7, MDA-MB-231 and HEK293 breast cancer cells, these cells were transfected with either pcDNA3-HA-KL or an empty vector, starved for 48 hours, treated with EGF, and analyzed for the expression and activity of the ERK1/2, which are downstream targets of the EGF pathway.

The target of the next assay is T1, IGF-1R (Homo sapiens, UniProt P08069).
T1 construct: endogenous in cells; host or cells: MCF-7 cells expressing HA-klotho (stably or transiently)
The assay is described as follows: Co-immunoprecipitation of HA-klotho protein and IGF-1R in MCF-7 cells. In kind it is binding. Particulars: MCF-7 cells expressing HA-klotho protein. As to the method: Cells were harvested as for Western blot, and 400 μg protein lysate were incubated with IgG-Sepharose (Sigma) or protein A/G (Pierce, Rockford, Ill.) beads at 4° C. for 1 h to eliminate non-specifically bound proteins. These beads were subsequently used as a negative control. The supernatants were then incubated for 4 hours with either 2 μg anti-HA antibody (Sigma) or 2 μl of anti-IGF-1β-R (Santa Cruz Biotechnology) and IgG-Sepharose or protein A/G (Pierce, Rockford, Ill.), respectively, was added. Following an overnight incubation, the beads were washed 6 times in RIPA buffer and the immunoprecipitated materials were separated by SDS-PAGE and detected by Western blotting.
As klotho protein can bind FGFR and other membrane proteins, binding of klotho protein to the IGF-1R was examined. Co-immunoprecipitation assays were conducted using MCF-7 cells either stably (FIG. 10) or transiently (data not shown) expressing HA-klotho protein. HA-klotho protein was detected by Western blotting following immunoprecipitation of the IGF-1R, and the IGF-1R was detected following immunoprecipitation using HA-directed antibody.

The subject of assay [6] is IGF-1 pathway in Panc1 cells. Kind of assay: IGF-1 pathway in Panc1 cells after klotho protein over-expression (immunoblot). In kind it is cell-based, human. Particulars: IGF-1 12.5 nM, 15 min. As for the experimental part: For pancreatic cells, protein extraction and Western blotting was performed as described (Wolf et al., 2008).
Panc1 cells were transfected with either klotho protein-HA expression plasmid (KL-HA) or a control vector (pcDNA3). After 24 hrs, cells were serum starved for 48 hr and treated with IGF-1 (12.5 nM, 15 min). Following treatment, cells were harvested and proteins were resolved and immunoblotted using antibodies directed against phosphorylated (p) and total (t) IGF-1R, p- and t-AKT, p- and t-ERK1/2.

T1 sequence (P08069 31-1367): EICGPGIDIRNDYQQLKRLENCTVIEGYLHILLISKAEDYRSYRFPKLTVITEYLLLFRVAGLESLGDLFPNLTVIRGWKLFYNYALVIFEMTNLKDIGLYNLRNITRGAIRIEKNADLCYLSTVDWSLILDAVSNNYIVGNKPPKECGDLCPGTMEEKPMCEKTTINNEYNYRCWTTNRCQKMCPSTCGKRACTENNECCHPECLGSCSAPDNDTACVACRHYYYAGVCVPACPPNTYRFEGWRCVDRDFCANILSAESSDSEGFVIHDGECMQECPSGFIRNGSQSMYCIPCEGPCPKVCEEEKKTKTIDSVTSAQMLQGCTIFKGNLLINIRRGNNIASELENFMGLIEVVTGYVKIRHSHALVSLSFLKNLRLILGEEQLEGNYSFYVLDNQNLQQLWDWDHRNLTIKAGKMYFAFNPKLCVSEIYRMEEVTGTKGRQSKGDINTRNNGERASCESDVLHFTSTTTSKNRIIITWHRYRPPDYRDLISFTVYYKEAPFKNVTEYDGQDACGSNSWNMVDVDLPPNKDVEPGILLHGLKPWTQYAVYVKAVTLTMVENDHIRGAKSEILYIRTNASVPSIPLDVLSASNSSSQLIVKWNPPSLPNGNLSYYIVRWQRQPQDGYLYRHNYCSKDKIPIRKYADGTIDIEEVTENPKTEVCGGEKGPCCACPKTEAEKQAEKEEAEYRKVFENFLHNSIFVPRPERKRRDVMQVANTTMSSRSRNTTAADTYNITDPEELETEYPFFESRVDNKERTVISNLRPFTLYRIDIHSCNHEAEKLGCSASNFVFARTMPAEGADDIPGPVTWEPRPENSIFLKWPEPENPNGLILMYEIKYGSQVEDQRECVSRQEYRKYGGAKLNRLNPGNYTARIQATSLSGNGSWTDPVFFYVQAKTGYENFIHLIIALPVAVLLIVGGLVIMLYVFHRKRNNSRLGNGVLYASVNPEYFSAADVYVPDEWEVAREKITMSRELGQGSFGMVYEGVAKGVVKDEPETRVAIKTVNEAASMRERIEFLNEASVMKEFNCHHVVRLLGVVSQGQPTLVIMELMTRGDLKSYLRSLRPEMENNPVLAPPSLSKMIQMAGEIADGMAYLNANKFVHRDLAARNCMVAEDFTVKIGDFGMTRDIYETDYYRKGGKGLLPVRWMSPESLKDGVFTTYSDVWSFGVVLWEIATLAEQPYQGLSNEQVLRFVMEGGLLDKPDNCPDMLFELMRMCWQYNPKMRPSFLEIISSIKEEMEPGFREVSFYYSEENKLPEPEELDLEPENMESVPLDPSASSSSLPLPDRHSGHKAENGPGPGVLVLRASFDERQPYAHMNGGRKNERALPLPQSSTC

B1: klotho protein: full length mouse Klotho (SEQ ID NO. 3) over-expressed in cells from HA-tagged expression vector pcDNA3-HA-KL (protein)
chain: MLARAPPRRPPRLVLLRLLLLHLLLLALRARCLSAEPGQGAQTWARFARAPAPEAAGLLHDTFPDGFLWAVGSAAYQTEGGWRQHGKGASIWDTFTHHSGAAPSDSPIVVAPSGAPSPPLSSTGDVASDSYNNVYRDTEGLRELGVTHYRFSISWARVLPNGTAGTPNREGLRYYRRLLERLRELGVQPVVTLYHWDLPQRLQDTYGGWANRALADHFRDYAELCFRHFGGQVKYWITIDNPYVVAWHGYATGRLAPGVRGSSRLGYLVAHNLLLAHAKVWHLYNTSFRPTQGGRVSIALSSHWINPRRMTDYNIRECQKSLDFVLGWFAKPIFIDGDYPESMKNNLSSLLPDFTESEKRLIRGTADFFALSFGPTLSFQLLDPNMKFRQLESPNLRQLLSWIDLEYNHPPIFIVENGWFVSGTTKRDDAKYMYYLKKFIMETLKAIRLDGVDVIGYTAWSLMDGFEWHRGYSIRRGLFYVDFLSQDKELLPKSSALFYQKLIEDNGFPPLPENQPLEGTFPCDFAWGVVDNYVQVDTTLSQFTDPNVYLWDVHHSKRLIKVDGVVAKKRKPYCVDFSAIRPQITLLREMRVTHFRFSLDWALILPLGNQTQVNHTVLHFYRCMISELVHANITPVVALWQPAAPHQGLPHALAKHGAWENPHTALAFADYANLCFKELGHWVNLWITMNEPNTRNMTYRAGHHLLRAHALAWHLYDDKFRAAQKGKISIALQADWIEPACPFSQNDKEVAERVLEFDIGWLAEPIFGSGDYPRVMRDWLNQKNNFLLPYFTEDEKKLVRGSFDFLAVSHYTTILVDWEKEDPMKYNDYLEVQEMTDITWLNSPSQVAVVPWGLRKVLNWLRFKYGDLPMYVTANGIDDDPHAEQDSLRIYYIKNYVNEALKAYVLDDINLCGYFAYSLSDRSAPKSGFYRYAANQFEPKPSMKHYRRIIDSNGFLGSGTLGRFCPEEYTVCTECGFFQTRKSLLVFISFLVFTFIISLALIFHYSKKGQRSYK
modifications: HA tag
As to B1, the “reduction of number and size of surviving colonies” value in the assay with MCF-7 was 84%; in the assay on MDA-MB-231, 72%. In addition, in [1], the “proliferation slower than controls (MTT assay)” value is on record as “up to 6 fold”. The “expression or cleavage of PARP” value (with p53 levels in HEK 293; in [2]) was “No changes” in each case. The p53 levels entry in the assay on p53 levels in HEK 293 was “reduce”; in assay [2], “increase”. The “phosphorylation of IGF-1R, IRS-1, AKT1, GSK3β, ERK-1 and -2” value in [3] is listed as “reduced phosphorylation”. Moreover, the “activation of the insulin pathway” value in assay [4] is “inhibited”. Moreover, the “expression and phosphorylation of ERK1/2 after EGF” value in assay [5] was “affected neither the expression nor phosphorylation”. In the assay with IGF-1R, the “interaction with the IGF-1 receptor (co-immunoprecipitation)” value is “interaction”. In addition, in assay [6], the “phosphorylation of IGF-1R, AKT1 and ERK1/2” value was “reduced phosphorylation”.
